The source of these data is US20240254260A1 (ISU ABXIS, published 2024).

This test has as its target T1, ASM protein present in the blood plasma of APP/PS1 mice (mouse, UniProt Q04519 45-626, limits assumed).
T1 sequence: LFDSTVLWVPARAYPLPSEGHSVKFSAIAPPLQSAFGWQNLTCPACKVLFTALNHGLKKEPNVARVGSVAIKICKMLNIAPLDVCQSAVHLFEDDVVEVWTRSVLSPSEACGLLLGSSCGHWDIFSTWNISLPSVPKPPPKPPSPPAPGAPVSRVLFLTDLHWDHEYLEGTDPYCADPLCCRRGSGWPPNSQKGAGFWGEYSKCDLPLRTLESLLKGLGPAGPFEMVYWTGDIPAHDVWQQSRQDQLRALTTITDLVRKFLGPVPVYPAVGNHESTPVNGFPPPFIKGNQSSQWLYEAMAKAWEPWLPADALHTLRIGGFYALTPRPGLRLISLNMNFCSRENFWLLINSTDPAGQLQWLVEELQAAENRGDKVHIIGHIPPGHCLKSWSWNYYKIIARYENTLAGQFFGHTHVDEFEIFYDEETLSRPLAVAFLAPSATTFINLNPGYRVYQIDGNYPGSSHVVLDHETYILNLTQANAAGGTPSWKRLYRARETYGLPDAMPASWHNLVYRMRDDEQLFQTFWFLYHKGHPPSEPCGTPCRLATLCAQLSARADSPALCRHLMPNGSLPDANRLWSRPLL
The test is described as follows: cell-based or functional assay.

B1: antibody #9104 (antibody, mouse IgG1, V domains shown)
VH: EVQLLESGGGLVQPGGSLRLSCAASGFTFSNYYMSWVRQAPGKGLEWVSGIYYGSGNIYYADSVKGRFTISRDNSKNTLYLQMNSLRAEDTAVYYCARDTPGFDYWGQGTLVTVSS
VL: QSVLTQPPSASGTPGQRVTISCTGSSSNIGNNAVNWYQQLPGTAPKLLIYYDSHRPSGVPDRFSGSKSGTSASLAISGLRSEDEADYYCGAWDYSLSAYVFGGGTKLTVLG
As to B1, the “activity of the ASM protein in blood plasma of APP/PS1 mice after administration of 50 mg/kg antibody (UPLC), relative to the negative control group” value was around 64%.
